Tests used:
6×His-CYLD = 6×His-CYLD (UniProt Q9NQC7)
GST-SPATA2 = GST-SPATA2 (UniProt Q9UM82)
Chain of GST-SPATA2 (Q9UM82 whole entry): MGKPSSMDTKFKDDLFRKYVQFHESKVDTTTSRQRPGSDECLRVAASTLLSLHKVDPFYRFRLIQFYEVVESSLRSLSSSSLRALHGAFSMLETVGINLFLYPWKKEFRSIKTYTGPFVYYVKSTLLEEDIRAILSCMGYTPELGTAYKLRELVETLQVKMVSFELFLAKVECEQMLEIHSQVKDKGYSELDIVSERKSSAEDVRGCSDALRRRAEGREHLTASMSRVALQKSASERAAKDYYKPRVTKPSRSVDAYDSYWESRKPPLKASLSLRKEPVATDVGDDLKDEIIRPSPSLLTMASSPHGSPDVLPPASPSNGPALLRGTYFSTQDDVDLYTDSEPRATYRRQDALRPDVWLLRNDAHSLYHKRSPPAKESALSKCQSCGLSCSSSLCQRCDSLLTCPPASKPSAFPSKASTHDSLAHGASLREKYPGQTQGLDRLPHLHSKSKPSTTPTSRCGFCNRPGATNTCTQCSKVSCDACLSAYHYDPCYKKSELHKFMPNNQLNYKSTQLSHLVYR

Chain of 6×His-CYLD (Q9NQC7 whole entry): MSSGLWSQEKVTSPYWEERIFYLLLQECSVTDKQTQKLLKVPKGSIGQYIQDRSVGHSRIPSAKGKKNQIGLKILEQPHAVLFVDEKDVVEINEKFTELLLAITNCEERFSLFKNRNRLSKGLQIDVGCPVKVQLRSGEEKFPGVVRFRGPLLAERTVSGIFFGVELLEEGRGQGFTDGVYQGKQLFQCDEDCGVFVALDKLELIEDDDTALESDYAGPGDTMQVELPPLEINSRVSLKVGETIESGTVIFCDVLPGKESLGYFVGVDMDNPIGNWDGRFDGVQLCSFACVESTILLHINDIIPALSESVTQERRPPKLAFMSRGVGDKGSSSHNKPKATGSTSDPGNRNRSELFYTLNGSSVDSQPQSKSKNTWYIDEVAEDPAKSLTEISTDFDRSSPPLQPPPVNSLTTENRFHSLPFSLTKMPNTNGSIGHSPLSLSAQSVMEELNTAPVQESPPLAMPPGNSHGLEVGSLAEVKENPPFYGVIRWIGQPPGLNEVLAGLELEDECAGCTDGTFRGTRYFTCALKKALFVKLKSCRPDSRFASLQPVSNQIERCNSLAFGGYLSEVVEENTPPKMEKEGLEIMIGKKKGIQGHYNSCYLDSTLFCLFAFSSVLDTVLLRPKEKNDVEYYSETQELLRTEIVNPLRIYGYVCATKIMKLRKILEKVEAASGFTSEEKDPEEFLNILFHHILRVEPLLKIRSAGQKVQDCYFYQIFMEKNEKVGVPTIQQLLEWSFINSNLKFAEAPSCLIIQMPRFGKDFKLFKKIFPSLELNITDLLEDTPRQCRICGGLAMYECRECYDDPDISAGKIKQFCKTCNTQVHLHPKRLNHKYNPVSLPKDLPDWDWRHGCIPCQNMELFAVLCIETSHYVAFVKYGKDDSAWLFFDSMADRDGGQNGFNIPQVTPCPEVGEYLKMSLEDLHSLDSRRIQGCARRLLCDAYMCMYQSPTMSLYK

| Substance | in vitro ubiquitylation assay (UBE1, UBE2L3, HA-Ub) (6×His-CYLD) | in vitro ubiquitylation assay (UBE1, UBE2L3, HA-Ub) (GST-SPATA2) | in vitro dephosphorylation of ABL1-phosphorylated RNF213 (3×-FLAG-RNF213) |
| --- | --- | --- | --- |
| 3×-FLAG-RNF213 | SPATA2 and CYLD, when tested alone or in equimolar concentrations, were ubiquitinated by 3×FLAG-RNF213 | SPATA2 and CYLD, when tested alone or in equimolar concentrations, were ubiquitinated by 3×FLAG-RNF213 |  |
| 3×-FLAG-RNF213^H4014A | both proteins showed increased ubiquitylation when the RING mutant RNF213^H4014A (RING-dead) was assayed (compared with WT RNF213) | both proteins showed increased ubiquitylation when the RING mutant RNF213^H4014A (RING-dead) was assayed (compared with WT RNF213) |  |
| 3×-FLAG-RNF213^H4014A/H4509A | RING/RZ-dead was unable to ubiquitylate CYLD/SPATA2 | RING/RZ-dead was unable to ubiquitylate CYLD/SPATA2 |  |
| 3×-FLAG-RNF213^H4509A | There was no significant ubiquitylation of CYLD or SPATA2 when an RZ mutant ("RZ-dead") form of RNF213 (RNF213^H4509A) was tested | There was no significant ubiquitylation of CYLD or SPATA2 when an RZ mutant ("RZ-dead") form of RNF213 (RNF213^H4509A) was tested |  |
| recombinant GST-PTP1B |  |  | GST-PTP1B dephosphorylated ABL1-phosphorylated RNF213 |

Reference: patent US20250025478
